# Source: paper PMC3376891 (Cell, 2012)
# Legend:
# [1] = Far-UV CD spectroscopy of peptides; format: physicochemical; conditions: aqueous solution / buffer (Figure S2D)
# [2] = salt-free buffer; ref Bowie and Sauer, 1989; cited from earlier work
Substance,Secondary structure by far-UV CD [1],Unfolding behavior of Arc upon dilution [2]
neuropeptide Y [Pep1],α helix,
"Arc: 55 aa Arc repressor, a client protein of both chaperones (MKGMSKMPQFNLRWPREVLDLVRKVAEENGRSVNSEIYQRVMESFKKEGRIGA; UniProt P03050 1-53, looked up)",,rapidly dissociate and slowly unfold upon dilution into salt-free buffer without forming aggregates
